Laboratory results reported in patent publication US20160207991A1 (Pfizer, published 2016).
Positions count from the first letter of the chain named.

B1: humanised affinity matured anti-BDNF antibody B30 (antibody, V domains shown)
VH: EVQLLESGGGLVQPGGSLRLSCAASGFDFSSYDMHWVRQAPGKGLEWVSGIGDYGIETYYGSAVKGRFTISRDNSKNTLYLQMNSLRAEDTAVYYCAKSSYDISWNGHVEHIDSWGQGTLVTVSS
VL: SSELTQPPAVSVALGQTVRITCSGAGSGYGYGWYQQKPGQAPVTVIYSNDKRPSGIPDRFSGSSSGNTASLTITGAQAEDEADYYCGTYVSAYYGYAIFGGGTKLTVL
B2: humanised affinity-optimized anti-BDNF antibody B18 (antibody, V domains shown)
VH: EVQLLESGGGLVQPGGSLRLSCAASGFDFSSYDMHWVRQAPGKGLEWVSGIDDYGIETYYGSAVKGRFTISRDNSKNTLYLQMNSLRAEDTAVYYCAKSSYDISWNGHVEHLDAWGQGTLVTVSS
VL: B1 VL with S23Q, A25D, G26S, S48G, N49K, D50N, K51N
B3: humanised affinity-optimized anti-BDNF antibody B20 (antibody, V domains shown)
VH: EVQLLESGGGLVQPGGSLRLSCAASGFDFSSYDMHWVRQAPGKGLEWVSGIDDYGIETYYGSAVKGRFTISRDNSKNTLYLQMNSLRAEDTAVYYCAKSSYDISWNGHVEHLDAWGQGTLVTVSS
VL: B1 VL with V90D, A92T, Y93D, Y94A
B4: anti-BDNF antibody R3BH1 (chicken-human chimeric IgG) (antibody, V domains shown)
VH: AVTLDESGGGLQTPGGGLSLVCKASGFDFSSYDMHWVRQAPGKGLEWVAGIDDGGSDTYYGSAVKGRATISRDNGQSTVRLQLNNLRAEDTGTYYCAKSSYDISWNGHVENIDAWGHGTEVIVSS
VL: ALTQPTSVSTNLGGTVEITCSGAGSGYGYGWFQQKSPGSAPVTVIYSNDKRPSDIPSRFSGSKSGSTGTLTITGVQAEDEAVYFCGTYDSTDAGYAIFGAGTTLTVL
notes: also called R3BH1 IgG; chimeric R3BH1

Columns and labels:
[1] = molecular target: T1, p75NTR receptor (immobilised on the SPR flow cell) (Homo sapiens (Human), UniProt P08138 29-250); experiment: ELISA (Example 14, conditions of Example 7): plate coated with 1 µg/ml of the antigen, antibody at the highest concentration of the titration, anti-IgG-HRP, TMB
T1 construct: also called p75 neurotrophic receptor; LNGFR
T1 sequence: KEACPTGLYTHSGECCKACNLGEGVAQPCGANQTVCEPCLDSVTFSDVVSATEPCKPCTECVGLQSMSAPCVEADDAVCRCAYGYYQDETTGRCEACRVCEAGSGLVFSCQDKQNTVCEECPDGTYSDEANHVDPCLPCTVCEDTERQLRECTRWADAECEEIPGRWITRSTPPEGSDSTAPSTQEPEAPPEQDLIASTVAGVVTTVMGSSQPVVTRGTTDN

recombinant human CXCL9 [2] = molecular target: T2, recombinant human CXCL9 (human, UniProt Q07325 23-125); experiment: as above
T2 sequence (looked up): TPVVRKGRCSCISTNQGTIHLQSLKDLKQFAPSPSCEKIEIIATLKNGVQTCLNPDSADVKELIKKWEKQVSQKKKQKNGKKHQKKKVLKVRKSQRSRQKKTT

recombinant human CXCL10 [3] = molecular target: T3, recombinant human CXCL10 (human, UniProt P02778 22-98); experiment: as above
T3 sequence (looked up): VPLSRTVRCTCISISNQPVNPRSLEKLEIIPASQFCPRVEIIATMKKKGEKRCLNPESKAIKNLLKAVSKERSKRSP

[4] = molecular target: T4, recombinant human beta-NGF (human, UniProt P01138 122-241); experiment: as above
T4 construct: also called β-NGF; Nerve Growth Factor

recombinant human CXCL13 [5] = molecular target: T5, recombinant human CXCL13 (human, UniProt O43927 23-109); experiment: as above
T5 sequence (looked up): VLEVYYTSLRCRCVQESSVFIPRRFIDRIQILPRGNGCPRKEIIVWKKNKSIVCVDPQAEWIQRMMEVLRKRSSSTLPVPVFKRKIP

[6] = molecular target: T6, recombinant human neurotrophin-4 (human, UniProt P34130 81-210); experiment: as above
T6 construct: also called NT4; NT-4
T6 sequence (looked up): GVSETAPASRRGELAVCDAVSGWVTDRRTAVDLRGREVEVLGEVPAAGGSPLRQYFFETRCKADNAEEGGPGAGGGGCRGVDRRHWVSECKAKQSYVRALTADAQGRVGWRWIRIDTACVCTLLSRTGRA

[7] = molecular target: T7, recombinant human neurotrophin-3 (human, UniProt P20783 139-257); experiment: as above
T7 construct: also called NT3; NT-3
T7 sequence (looked up): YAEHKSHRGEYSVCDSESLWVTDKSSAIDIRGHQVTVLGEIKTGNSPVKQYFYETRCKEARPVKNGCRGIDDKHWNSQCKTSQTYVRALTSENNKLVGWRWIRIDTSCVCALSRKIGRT

recombinant CXCL3 = molecular target: T8, recombinant CXCL3 (Homo sapiens (Human), UniProt P19876 35-107); experiment: as above
T8 sequence: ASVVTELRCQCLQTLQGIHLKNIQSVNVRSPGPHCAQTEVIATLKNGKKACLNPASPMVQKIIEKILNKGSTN

[8] = molecular target: T9, human brain-derived neurotrophic factor (BDNF) (human, UniProt P23560 129-247); experiment: cell-based or functional assay
T9 sequence: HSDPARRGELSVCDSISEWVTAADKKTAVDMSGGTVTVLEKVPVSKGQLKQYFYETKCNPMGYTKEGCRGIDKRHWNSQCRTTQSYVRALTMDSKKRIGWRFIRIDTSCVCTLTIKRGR

[9] = molecular target: T9, human brain-derived neurotrophic factor …; experiment: SPR, Biacore T200; immobilised human BDNF; 37 C
Description: (§1) All SPR experiments were performed at 37° C. and a data collection rate of 1 Hz with HBS-EP+ used as both the sample and running buffer. The resulting sensorgrams were double referenced with buffer injections and a non-derivatized flow cell surface. Rate constants were determined by applying a 1:1 Langmuir binding model using the T200 evaluation software v1.0 and the equation KD=kd/kₐ.

[10] = molecular target: T10, endogenous rat BDNF in plasma (rat, UniProt P23363 131-249, limits assumed); experiment: ligand-binding assay (Gyrolab) for total BDNF in plasma of dosed rats
T10 construct: also called endogenous BDNF
T10 sequence (looked up): T9 sequence
Description: Sample concentrations were determined by interpolation from a standard curve that was fitted using a 5-parameter logistic curve fit with 1/y² response weighting.

[11] = molecular target: T9, human brain-derived neurotrophic factor …; experiment: competition HTRF (Example 12): 1 nM biotinylated human BDNF, europium cryptate labelled H1, SA-XL665, unlabelled antibody titrated; competitor: labelled H1; x axis is log10 of pM by the text
Description: Reagents were added sequentially on the MiniTrak Liquid Handling Platform (Perkin-Elmer) into 384-well low volume black plates (Nunc).

[12] = molecular target: T9, human brain-derived neurotrophic factor …; experiment: SPR, Biacore T200; immobilised human BDNF; 37 C (same data as Table 10)
Description: as §1

[13] = molecular target: T9, human brain-derived neurotrophic factor …; experiment: SPR, Biacore T200; human BDNF amine-coupled to CM5, antibody injected; 1:1 Langmuir; 37 C
Description: as §1
The dissociation phase for the highest concentration of antibody was extended to 4000 seconds to achieve a signal decay minimum of 5%. The kinetic rate constants were determined using a Langmuir 1:1 binding model and T200 evaluation software v1.0.

[14] = molecular target: T1, p75NTR receptor (immobilised on the SPR …); experiment: ELISA (Example 7): plate coated with 1 µg/ml of the antigen, antibody at the highest concentration of the titration, anti-IgG-HRP, TMB
Description: (§2) NUNC plates were coated with 1 μg/ml of a neurotrophin or chemokine in 1×PBS overnight. […] Plates were washed and a 1/5000 dilution of anti-IgG-HRP (horse radish peroxidase) in blocking buffer was added for 1 h (100 μL total volume). Plates were washed and developed by addition of 3,3′,5,5′-Tetramethylbenzidine (TMB) substrate and subsequently stopped with phosphoric acid.

recombinant human CXCL9 [15] = molecular target: T2, recombinant human CXCL9; experiment: as above
Description: as §2

recombinant human CXCL10 [16] = molecular target: T3, recombinant human CXCL10; experiment: as above
Description: as §2

[17] = molecular target: T4, recombinant human beta-NGF; experiment: as above
Description: as §2

recombinant human CXCL13 [18] = molecular target: T5, recombinant human CXCL13; experiment: as above
Description: as §2

[19] = molecular target: T6, recombinant human neurotrophin-4; experiment: as above
Description: as §2

[20] = molecular target: T7, recombinant human neurotrophin-3; experiment: as above
Description: as §2

T4 sequence (P01138 122-241 limits assumed): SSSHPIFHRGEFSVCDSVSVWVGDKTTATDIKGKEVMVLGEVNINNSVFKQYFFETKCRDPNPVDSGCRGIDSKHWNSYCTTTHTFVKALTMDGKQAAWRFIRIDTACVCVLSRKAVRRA

Binder | binding result [1] | binding result (recombinant human CXCL9 [2]) | binding result (recombinant human CXCL10 [3]) | binding result [4] | binding result (recombinant human CXCL13 [5]) | binding result [6] | binding result [7] | binding result (recombinant CXCL3) | PathHunter pTrkB assay in U2OS TrkB/p75NTR cells, 300 pM BDNF [8] [nM] | pERK assay in U2OS TrkB/p75NTR cells, 150 pM BDNF [8] [nM] | Kd [9] [nM] | T1/2 [9] [h] | koff [9] [s⁻¹] | kon [9] [M⁻¹ s⁻¹] | binding result [10] | IC50 (read off the curve) [11] [nM] | other results
B1 | no binding (tested: 300 µg/mL) | no binding (tested: 300 µg/mL) | no binding (tested: 300 µg/mL) | no binding (tested: 300 µg/mL) | no binding (tested: 300 µg/mL) | no binding (tested: 300 µg/mL) | no binding (tested: 300 µg/mL) | no binding (tested: 300 µg/mL) | 0.54 | 1.3 | 0.12 | 5.58 | 3.5e-05 | 290000 | binds | ~1 | 
B2 | no binding (tested: 300 µg/mL) | no binding (tested: 300 µg/mL) | no binding (tested: 300 µg/mL) | no binding (tested: 300 µg/mL) | no binding (tested: 300 µg/mL) | no binding (tested: 300 µg/mL) | no binding (tested: 300 µg/mL) | no binding (tested: 300 µg/mL) | 0.29 | 0.95 | 0.0994 | 7.03 | 2.8e-05 | 290000 |  | ~0.6 | 
B3 | no binding (tested: 300 µg/mL) | no binding (tested: 300 µg/mL) | no binding (tested: 300 µg/mL) | no binding (tested: 300 µg/mL) | no binding (tested: 300 µg/mL) | no binding (tested: 300 µg/mL) | no binding (tested: 300 µg/mL) | no binding (tested: 300 µg/mL) | 0.31 | 1.1 | 0.55 | 1.26 | 0.000154 | 280000 |  | ~1 | 
B4 |  |  |  |  |  |  |  |  |  |  |  |  |  |  | binds |  | Kd [12]: 34.4 nM; T1/2 [12]: 1.13 min; koff [12]: 0.0103 s⁻¹; kon [12]: 300000 M⁻¹ s⁻¹; Kd [13]: 34.4 nM; T1/2 [13]: 1.13 min; koff [13]: 0.0103 s⁻¹; kon [13]: 303000 M⁻¹ s⁻¹; binding result [14]: no binding (tested: 300 µg/mL); binding result (recombinant human CXCL9 [15]): no binding (tested: 300 µg/mL); binding result (recombinant human CXCL10 [16]): no binding (tested: 300 µg/mL); binding result [17]: no binding (tested: 300 µg/mL); binding result (recombinant human CXCL13 [18]): no binding (tested: 300 µg/mL); binding result [19]: no binding (tested: 300 µg/mL); binding result [20]: no binding (tested: 300 µg/mL)
